# Results: publication PMC9482650, “Quantitative fragmentomics allow affinity mapping of interactomes” (Nature Communications, 2022)
# T1: TIAM2, Q8IVF5
# T1 sequence (Q8IVF5 885-986, limits assumed, looked up): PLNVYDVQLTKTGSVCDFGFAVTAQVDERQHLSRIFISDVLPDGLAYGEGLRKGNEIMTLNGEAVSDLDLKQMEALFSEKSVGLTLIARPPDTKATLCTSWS
# T2: LRRC7, Q96NW7
# T2 sequence (Q96NW7 1440-1537, limits assumed, looked up): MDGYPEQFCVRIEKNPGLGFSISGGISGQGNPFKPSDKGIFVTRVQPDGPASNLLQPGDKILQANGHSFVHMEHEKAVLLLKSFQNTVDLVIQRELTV
# T3: GRIP1_4, Q9Y3R0
# T3 sequence (Q9Y3R0 467-571, limits assumed, looked up): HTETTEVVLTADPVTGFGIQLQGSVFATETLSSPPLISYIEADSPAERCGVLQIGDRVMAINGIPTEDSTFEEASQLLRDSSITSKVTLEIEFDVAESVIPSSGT
# T4: GRIP1_7, Q9Y3R0
# T4 sequence (Q9Y3R0 999-1096, limits assumed, looked up): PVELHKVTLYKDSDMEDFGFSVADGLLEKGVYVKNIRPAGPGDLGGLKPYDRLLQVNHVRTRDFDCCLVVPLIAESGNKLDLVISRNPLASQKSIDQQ
# T5: SNTA1, Q13424
# T5 sequence (Q13424 82-180, limits assumed, looked up): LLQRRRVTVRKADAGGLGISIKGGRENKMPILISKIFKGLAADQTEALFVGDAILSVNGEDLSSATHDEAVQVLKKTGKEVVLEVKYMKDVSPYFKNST
# T6: DFNB31_3, Q9P202
# T6 sequence (Q9P202 811-907, limits assumed, looked up): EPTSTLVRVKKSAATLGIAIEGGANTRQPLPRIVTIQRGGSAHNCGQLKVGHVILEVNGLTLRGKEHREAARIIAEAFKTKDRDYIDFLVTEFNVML
# T7: SNTB1, Q13884
# T7 sequence (Q13884 107-205, limits assumed, looked up): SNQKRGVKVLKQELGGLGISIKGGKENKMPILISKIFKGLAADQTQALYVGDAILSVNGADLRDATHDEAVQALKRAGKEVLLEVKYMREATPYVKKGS
# T8: CARD11, Q9BXL7
# T8 sequence (Q9BXL7 662-765, limits assumed, looked up): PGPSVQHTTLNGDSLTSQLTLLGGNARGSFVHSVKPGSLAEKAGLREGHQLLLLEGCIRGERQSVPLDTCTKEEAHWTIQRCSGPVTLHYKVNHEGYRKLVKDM
# T9: RHPN1, Q8TCX5
# T9 sequence (Q8TCX5 508-602, limits assumed, looked up): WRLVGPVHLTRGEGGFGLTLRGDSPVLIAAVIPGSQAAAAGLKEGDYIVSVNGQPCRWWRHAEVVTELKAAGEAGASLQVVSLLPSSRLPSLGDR
# T10: HTRA3, P83110
# T10 sequence (P83110 354-453, limits assumed, looked up): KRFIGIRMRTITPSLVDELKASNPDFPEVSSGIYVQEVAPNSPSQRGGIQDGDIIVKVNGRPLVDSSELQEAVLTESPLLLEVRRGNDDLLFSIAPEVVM
# T11: NHERF3_3, Q5T2W1
# T11 sequence (Q5T2W1 238-333, limits assumed, looked up): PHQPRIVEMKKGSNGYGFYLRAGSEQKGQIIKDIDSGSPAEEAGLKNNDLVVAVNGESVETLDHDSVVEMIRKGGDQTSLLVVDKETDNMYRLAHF
# Tests used:
# Test in all cases: holdup assay
# Parameters in all cases: key: below the threshold = too weak to quantify, mostly under pKd 3.1 to 4
# Conditions in all cases: plain residues with an end cap or a label only (N-terminal biotin on a linker: ado-ado)
# TIAM2, Q8IVF5 = biological target: T1, TIAM2, Q8IVF5
# LRRC7, Q96NW7 = biological target: T2, LRRC7, Q96NW7
# DLG1_3, Q12959 = biological target: DLG1_3, Q12959
# GRIP1_4, Q9Y3R0 = biological target: T3, GRIP1_4, Q9Y3R0
# GRIP1_7, Q9Y3R0 = biological target: T4, GRIP1_7, Q9Y3R0
# Inadl_10, Q8NI35 = biological target: Inadl_10, Q8NI35
# GRIP2_6, Q9C0E4 = biological target: GRIP2_6, Q9C0E4
# MAGI3_2, Q5TCQ9 = biological target: MAGI3_2, Q5TCQ9
# SNX27, Q96L92 = biological target: SNX27, Q96L92
# Inadl_2, Q8NI35 = biological target: Inadl_2, Q8NI35
# SNTA1, Q13424 = biological target: T5, SNTA1, Q13424
# DFNB31_3, Q9P202 = biological target: T6, DFNB31_3, Q9P202
# FRMPD2_3, Q68DX3 = biological target: FRMPD2_3, Q68DX3
# SNTB1, Q13884 = biological target: T7, SNTB1, Q13884
# CARD11, Q9BXL7 = biological target: T8, CARD11, Q9BXL7
# RHPN1, Q8TCX5 = biological target: T9, RHPN1, Q8TCX5
# IL16_3, Q14005 = biological target: IL16_3, Q14005
# GRIP2_4, Q9C0E4 = biological target: GRIP2_4, Q9C0E4
# GRASP, Q7Z6J2 = biological target: GRASP, Q7Z6J2
# GOPC, Q9HD26 = biological target: GOPC, Q9HD26
# HTRA3, P83110 = biological target: T10, HTRA3, P83110
# Inadl_6, Q8NI35 = biological target: Inadl_6, Q8NI35
# NHERF3_3, Q5T2W1 = biological target: T11, NHERF3_3, Q5T2W1
# SCRIB_1, Q14160 = biological target: SCRIB_1, Q14160
# GORASP1, Q9BQQ3 = biological target: GORASP1, Q9BQQ3
# DLG2_3, Q15700 = biological target: DLG2_3, Q15700
# Sequence of Inadl_2, Q8NI35 (Q8NI35 238-335): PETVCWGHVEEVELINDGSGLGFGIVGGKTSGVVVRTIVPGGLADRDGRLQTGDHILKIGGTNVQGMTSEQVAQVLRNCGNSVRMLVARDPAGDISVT
# Sequence of IL16_3, Q14005 (Q14005 1107-1207): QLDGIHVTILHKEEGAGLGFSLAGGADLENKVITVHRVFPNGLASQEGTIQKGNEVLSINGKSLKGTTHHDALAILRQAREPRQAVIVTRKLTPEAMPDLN
# Sequence of Inadl_10, Q8NI35 (Q8NI35 1673-1763): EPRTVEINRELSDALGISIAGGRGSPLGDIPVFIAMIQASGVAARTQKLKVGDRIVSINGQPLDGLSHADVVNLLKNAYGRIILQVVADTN
# Sequence of GRIP2_4, Q9C0E4 (Q9C0E4 446-548): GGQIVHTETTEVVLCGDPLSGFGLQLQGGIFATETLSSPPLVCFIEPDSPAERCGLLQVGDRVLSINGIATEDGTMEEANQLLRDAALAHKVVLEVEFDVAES
# Sequence of SCRIB_1, Q14160 (Q14160 718-814): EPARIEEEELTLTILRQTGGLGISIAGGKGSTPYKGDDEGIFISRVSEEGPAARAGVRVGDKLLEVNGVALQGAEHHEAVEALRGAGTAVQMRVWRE
# Sequence of GORASP1, Q9BQQ3 (Q9BQQ3 1-208): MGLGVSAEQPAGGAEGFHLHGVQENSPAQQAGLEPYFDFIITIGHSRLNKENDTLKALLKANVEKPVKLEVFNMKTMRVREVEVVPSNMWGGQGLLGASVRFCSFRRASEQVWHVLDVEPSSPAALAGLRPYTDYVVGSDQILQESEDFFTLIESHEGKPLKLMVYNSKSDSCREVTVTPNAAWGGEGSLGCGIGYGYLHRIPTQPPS
# Sequence of DLG1_3, Q12959 (Q12959 457-571): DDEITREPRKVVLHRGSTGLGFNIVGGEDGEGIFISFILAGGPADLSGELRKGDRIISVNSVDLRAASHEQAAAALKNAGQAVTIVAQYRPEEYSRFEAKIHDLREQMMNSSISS
# Sequence of GRASP, Q7Z6J2 (Q7Z6J2 96-193): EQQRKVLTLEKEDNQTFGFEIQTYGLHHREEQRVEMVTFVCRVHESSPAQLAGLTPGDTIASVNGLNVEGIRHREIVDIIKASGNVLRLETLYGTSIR
# Sequence of GRIP2_6, Q9C0E4 (Q9C0E4 648-740): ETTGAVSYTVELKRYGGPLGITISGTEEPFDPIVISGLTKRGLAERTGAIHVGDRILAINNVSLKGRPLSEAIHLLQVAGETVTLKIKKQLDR
# Sequence of MAGI3_2, Q5TCQ9 (Q5TCQ9 398-503): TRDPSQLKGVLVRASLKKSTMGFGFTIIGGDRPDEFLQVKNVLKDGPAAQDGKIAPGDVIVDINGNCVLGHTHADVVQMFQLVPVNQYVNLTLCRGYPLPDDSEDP
# Sequence of FRMPD2_3, Q68DX3 (Q68DX3 1073-1166): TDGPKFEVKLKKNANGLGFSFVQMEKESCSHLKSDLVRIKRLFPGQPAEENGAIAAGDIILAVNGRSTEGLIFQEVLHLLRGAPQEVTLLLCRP
# Sequence of Inadl_6, Q8NI35 (Q8NI35 1058-1167): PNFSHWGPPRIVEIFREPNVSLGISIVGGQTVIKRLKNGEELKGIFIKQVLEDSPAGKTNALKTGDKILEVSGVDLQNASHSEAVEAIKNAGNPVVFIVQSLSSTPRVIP
Binder,"pKd (TIAM2, Q8IVF5)","pKd (LRRC7, Q96NW7)","pKd (DLG1_3, Q12959)","pKd (GRIP1_4, Q9Y3R0)","pKd (GRIP1_7, Q9Y3R0)","pKd (Inadl_10, Q8NI35)","pKd (GRIP2_6, Q9C0E4)","pKd (MAGI3_2, Q5TCQ9)","pKd (SNX27, Q96L92)","pKd (Inadl_2, Q8NI35)","pKd (SNTA1, Q13424)","pKd (DFNB31_3, Q9P202)","pKd (FRMPD2_3, Q68DX3)","pKd (SNTB1, Q13884)","pKd (CARD11, Q9BXL7)","pKd (RHPN1, Q8TCX5)","pKd (IL16_3, Q14005)","pKd (GRIP2_4, Q9C0E4)","pKd (GRASP, Q7Z6J2)","pKd (GOPC, Q9HD26)",further results
"TGLWKHETTV [ADGRA3, Q8IWK6]",below the threshold,3.82,4.78,below the threshold,below the threshold,below the threshold,3.55,5.48,5.41,below the threshold,4.58,3.85,below the threshold,4.84,below the threshold,4.44,below the threshold,below the threshold,3.55,3.92,"pKd (HTRA3, P83110): below the threshold; pKd (Inadl_6, Q8NI35): below the threshold; pKd (NHERF3_3, Q5T2W1): below the threshold; pKd (SCRIB_1, Q14160): 4.74; pKd (GORASP1, Q9BQQ3): below the threshold; pKd (DLG2_3, Q15700): 4.86"
"PYPTADHMLA [JUP, P14923]",3.92,below the threshold,below the threshold,below the threshold,below the threshold,below the threshold,below the threshold,3.73,below the threshold,below the threshold,below the threshold,3.83,below the threshold,below the threshold,below the threshold,below the threshold,below the threshold,below the threshold,below the threshold,below the threshold,"pKd (HTRA3, P83110): below the threshold; pKd (Inadl_6, Q8NI35): below the threshold; pKd (NHERF3_3, Q5T2W1): below the threshold; pKd (SCRIB_1, Q14160): below the threshold; pKd (GORASP1, Q9BQQ3): below the threshold; pKd (DLG2_3, Q15700): 3.77"
"KPGKGSETVV [FZD4, Q9ULV1]",below the threshold,below the threshold,below the threshold,below the threshold,below the threshold,below the threshold,below the threshold,5.64,4.62,below the threshold,4.6,below the threshold,below the threshold,4.78,below the threshold,3.89,below the threshold,below the threshold,below the threshold,3.73,"pKd (HTRA3, P83110): below the threshold; pKd (Inadl_6, Q8NI35): 3.56; pKd (NHERF3_3, Q5T2W1): below the threshold; pKd (SCRIB_1, Q14160): 4.04; pKd (GORASP1, Q9BQQ3): 3.78; pKd (DLG2_3, Q15700): 4.01"

# The next lines start with results.
"pKd (TIAM2, Q8IVF5)","pKd (LRRC7, Q96NW7)","pKd (DLG1_3, Q12959)","pKd (GRIP1_4, Q9Y3R0)","pKd (GRIP1_7, Q9Y3R0)","pKd (Inadl_10, Q8NI35)","pKd (GRIP2_6, Q9C0E4)","pKd (MAGI3_2, Q5TCQ9)","pKd (SNX27, Q96L92)","pKd (Inadl_2, Q8NI35)","pKd (SNTA1, Q13424)","pKd (DFNB31_3, Q9P202)","pKd (FRMPD2_3, Q68DX3)","pKd (SNTB1, Q13884)","pKd (CARD11, Q9BXL7)","pKd (RHPN1, Q8TCX5)","pKd (IL16_3, Q14005)","pKd (GRIP2_4, Q9C0E4)","pKd (GRASP, Q7Z6J2)","pKd (GOPC, Q9HD26)",Binder,further results
below the threshold,below the threshold,below the threshold,below the threshold,below the threshold,below the threshold,below the threshold,4.48,3.83,below the threshold,below the threshold,below the threshold,3.97,below the threshold,below the threshold,below the threshold,below the threshold,below the threshold,below the threshold,below the threshold,"TRKRSGEAAV [PFKM, P08237]","pKd (HTRA3, P83110): below the threshold; pKd (Inadl_6, Q8NI35): below the threshold; pKd (NHERF3_3, Q5T2W1): below the threshold; pKd (SCRIB_1, Q14160): below the threshold; pKd (GORASP1, Q9BQQ3): below the threshold; pKd (DLG2_3, Q15700): below the threshold"
4.16,below the threshold,3.64,below the threshold,below the threshold,below the threshold,below the threshold,below the threshold,3.94,4.09,below the threshold,4.16,3.49,below the threshold,below the threshold,3.5,below the threshold,below the threshold,4.08,below the threshold,"SLNANEVEWF [RNF130, Q86XS8]","pKd (HTRA3, P83110): 4.68; pKd (Inadl_6, Q8NI35): 3.57; pKd (NHERF3_3, Q5T2W1): below the threshold; pKd (SCRIB_1, Q14160): 3.77; pKd (GORASP1, Q9BQQ3): 4.08; pKd (DLG2_3, Q15700): 3.73"
below the threshold,3.74,below the threshold,below the threshold,below the threshold,below the threshold,below the threshold,below the threshold,4.12,below the threshold,4.33,3.94,below the threshold,4.63,below the threshold,4.17,below the threshold,below the threshold,3.93,3.65,"AAVENKVTDL [PLXNB1, O43157]","pKd (HTRA3, P83110): below the threshold; pKd (Inadl_6, Q8NI35): 4.14; pKd (NHERF3_3, Q5T2W1): below the threshold; pKd (SCRIB_1, Q14160): 4.62; pKd (GORASP1, Q9BQQ3): below the threshold; pKd (DLG2_3, Q15700): below the threshold"
